Molecular target: T1, α-2 macroglobulin (Homo sapiens (Human), UniProt P01023 24-1474, Native alpha-2-macroglobulin is a glycosylated homotetramer (disulfide-linked dimers) with an internal thioester; one subunit is given.)
T1 construct: also called alpha-2 macroglobulin
T1 sequence: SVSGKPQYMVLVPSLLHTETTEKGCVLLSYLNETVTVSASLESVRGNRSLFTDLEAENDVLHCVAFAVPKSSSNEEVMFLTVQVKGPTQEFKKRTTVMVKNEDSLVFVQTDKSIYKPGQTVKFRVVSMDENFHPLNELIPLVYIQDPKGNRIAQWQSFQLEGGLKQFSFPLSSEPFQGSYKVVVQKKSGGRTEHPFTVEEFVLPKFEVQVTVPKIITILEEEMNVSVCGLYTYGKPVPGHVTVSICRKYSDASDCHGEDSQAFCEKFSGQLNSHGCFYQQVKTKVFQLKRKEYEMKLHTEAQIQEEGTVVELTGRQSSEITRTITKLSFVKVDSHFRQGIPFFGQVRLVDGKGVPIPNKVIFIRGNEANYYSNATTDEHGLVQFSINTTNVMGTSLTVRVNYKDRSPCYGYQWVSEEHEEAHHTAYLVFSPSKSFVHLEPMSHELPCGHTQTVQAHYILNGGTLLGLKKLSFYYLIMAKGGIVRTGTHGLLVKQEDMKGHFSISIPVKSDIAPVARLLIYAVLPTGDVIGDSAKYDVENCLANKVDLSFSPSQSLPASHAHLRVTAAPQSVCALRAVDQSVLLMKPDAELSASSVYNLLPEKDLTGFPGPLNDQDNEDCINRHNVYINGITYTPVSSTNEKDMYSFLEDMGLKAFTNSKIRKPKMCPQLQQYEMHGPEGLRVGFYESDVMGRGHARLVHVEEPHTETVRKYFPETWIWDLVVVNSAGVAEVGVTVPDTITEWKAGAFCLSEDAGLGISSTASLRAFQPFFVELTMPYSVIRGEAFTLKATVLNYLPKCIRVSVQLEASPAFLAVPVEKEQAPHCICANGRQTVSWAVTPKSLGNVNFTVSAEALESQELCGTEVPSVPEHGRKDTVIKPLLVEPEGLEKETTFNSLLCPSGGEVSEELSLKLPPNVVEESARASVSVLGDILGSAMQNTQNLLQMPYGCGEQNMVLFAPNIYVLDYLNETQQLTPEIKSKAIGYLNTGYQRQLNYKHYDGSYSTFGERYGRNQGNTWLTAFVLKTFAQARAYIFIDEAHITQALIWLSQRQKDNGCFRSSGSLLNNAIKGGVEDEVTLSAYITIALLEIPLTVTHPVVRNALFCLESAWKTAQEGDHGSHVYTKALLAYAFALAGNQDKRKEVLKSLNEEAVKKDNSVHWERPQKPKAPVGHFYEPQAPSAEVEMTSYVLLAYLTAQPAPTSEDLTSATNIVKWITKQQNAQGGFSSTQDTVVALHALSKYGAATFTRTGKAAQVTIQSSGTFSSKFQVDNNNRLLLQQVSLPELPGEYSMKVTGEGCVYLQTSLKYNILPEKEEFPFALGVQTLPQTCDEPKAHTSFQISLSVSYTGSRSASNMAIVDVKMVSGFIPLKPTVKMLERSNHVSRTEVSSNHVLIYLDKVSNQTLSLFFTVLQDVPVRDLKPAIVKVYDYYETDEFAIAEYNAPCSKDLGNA
Assay: competition binding assay, immobilized α-2 macroglobulin
Method: OP-1 was determined to interact specifically with α-2 macroglobulin in a standard competition binding assay, using immobilized, commercially available α-2 macroglobulin, and labeled and unlabeled OP-1 protein. […] This N-terminal portion of the protein, which is not part of the crystal structure, is positively charged and likely is highly flexible in solution.

B1: Truncated mature OP-1 (ligand, UniProt P18075 315-431, looked up)
chain: MANVAENSSSDQRQACKKHELYVSFRDLGWQDWIIAPEGYAAYYCEGECAFPLNSYMNATNHAIVQTLVHFINPETVPKPCCAPTQLNAISVLYFDDSSNVILKKYRNMVVRACGCH
notes: range 23-139; The range is on mature-protein numbering (His 139 = C-terminus); also called truncated mature OP-1 (first 22 amino acids cleaved by trypsin)
fold less affinity (against untruncated OP-1): 10 fold
